Common to all, as to experiment: affinity purification with mass spectrometry
Assay [1] deals with WT PLRV (assembled virions and/or soluble structural proteins CP and RTP, as captured by the α-PLRV antibody) (Potato leafroll virus).
For assay [2], the target named is ΔRTC PLRV (virions and soluble structural proteins of the mutant whose RTD lacks the last 218 C-terminal residues) (Potato leafroll virus).
The target of assay [3] is non-incorporated (soluble) form of the PLRV readthrough protein expressed by the ΔCP mutant (Potato leafroll virus).

Regarding “Potato leafroll virus P3a protein (from UniProt P0DTK2 1-45) (natural protein)”, the fold decrease of P3a (normalised to CP) in ΔP17 APs against WT APs in assay [1] came out at 3.4 fold.

B1: Potato leafroll virus P1 polyprotein (natural protein)
chain: KEAGFLHPAFNFRGTSTMSASSGDYSAAPTPLYKSWALPSSLNLTTQPPPPLTDRSYYELVQALTSKMRLDCQTVGDMTWRHLSEMLFASWNSVKEVSLKAASVTLWAIINIWFGLYWTLARLITLFLWTFSIEALCLILLGCITSLIYKGALSLSEHLPVFLFMSPLKIIWRAAFSKRNYKNERAVEGYKGFSVPQKPPKSAVIELQHENGSHLGYANCIRLYSGENALVTAEHCLEGAFATSLKTGNRIPMSTFFPIFKSARNDISILVGPPNWEGLLSVKGAHFITADKIGKGPASFYTLEKGEWMCHSATIDGAHHQFVSVLCNTGPGYSGTGFWSSKNLLGVLKGFPLEEECNYNVMSVIPSIPGITSPNYVFESTAVKGRVFSDEAVKELEREASEAVKKLARFKSLTDKNWADDYDSDEDYGLEREAATNAPAEKTAQTNSAEKTAPSTSAEKTALTNKPLNGQAAPSAKTNGNSDIPDAATSAPPMDKMVEQIITAMVGRINLSEIEEKIVSRVSQKALQKPKQKKRGRRGGKNKQNSLPPTSTQSTSGAPKKEAAPQASGSAGTSRATTTPAPEAKPSGGKNSAKFTPSWRIKQQDSAGQKPDLKLNSKA
In assay [2], B1 returned a fold increase of P1 (normalised to CP) in ΔRTC APs against WT APs of 1.8 fold.

B2: Potato leafroll virus P17 movement protein (natural protein)
chain: MSMVVYNNQECEEGNPFAGALTEFSQWLWSRPLGNPGAEDAEEEAIAAQEELEFPEDEAQARHSCLQRTTSWATPKEVSPSGRVYQTVRHSRMEYSRPTMSIRSQASYFSSSARPLPPPPVPSLMSWTPIAKYHPSSPTSTSSKLRRAAPKLIKRG
In turn, B2 displayed a fold increase of P17 (normalised to CP) in ΔCP APs against WT APs in assay [3] of 1.8 fold.

The record behind these values is paper PMC6265731.
